Laboratory results taken from patent US6572751B1, “Method and apparatus for continuous flow isoelectric focusing for purifying biological substances” (priority 1997, dated 2003).

Test: Amylolytic activity of purified α-amylase
Details: middle outflow after second contifocusing run

B1: α-amylase: enzyme purified from Bacillus subtilis strain A-200 culture supernatant (protein, UniProt P00691 42-659, looked up)
Alpha-amylase: LTAPSIKSGTILHAWNWSFNTLKHNMKDIHDAGYTAIQTSPINQVKEGNQGDKSMSNWYWLYQPTSYQIGNRYLGTEQEFKEMCAAAEEYGIKVIVDAVINHTTSDYAAISNEVKSIPNWTHGNTQIKNWSDRWDVTQNSLLGLYDWNTQNTQVQSYLKRFLDRALNDGADGFRFDAAKHIELPDDGSYGSQFWPNITNTSAEFQYGEILQDSASRDAAYANYMDVTASNYGHSIRSALKNRNLGVSNISHYASDVSADKLVTWVESHDTYANDDEESTWMSDDDIRLGWAVIASRSGSTPLFFSRPEGGGNGVRFPGKSQIGDRGSALFEDQAITAVNRFHNVMAGQPEELSNPNGNNQIFMNQRGSHGVVLANAGSSSVSINTATKLPDGRYDNKAGAGSFQVNDGKLTGTINARSVAVLYPDDIAKAPHVFLENYKTGVTHSFNDQLTITLRADANTTKAVYQINNGPETAFKDGDQFTIGKGDPFGKTYTIMLKGTNSDGVTRTEKYSFVKRDPASAKTIGYQNPNHWSQVNAYIYKHDGSRVIELTGSWPGKPMTKNADGIYTLTLPADTDTTNAKVIFNNGSAQVPGQNQPGFDYVLNGLYNDSGLSGSLPH
**Q.** With B1 as the molecule, how does the amylolytic activity read?
**A.** 200 U/g
